Biological target: T1, human pyruvate kinase isoform M2 (PK M2) (human, UniProt P14618-1 1-531)
T1 construct: Pyruvate kinase isoform M2, human; used at 2 uM in solution
Experiment: ultrafiltration; equimolar HMGB1 and PK M2 (2 uM each) mixed in 300 ul, filtrated (14000 g, 4 C) to 15 ul in an Amicon Ultra 0.5 ml 30 k device; filtrate and retentate analysed by Western blot; HMGB1 and PKM2 also analysed alone
Conditions: both partners purified

T1 sequence (P14618 whole entry, canonical isoform): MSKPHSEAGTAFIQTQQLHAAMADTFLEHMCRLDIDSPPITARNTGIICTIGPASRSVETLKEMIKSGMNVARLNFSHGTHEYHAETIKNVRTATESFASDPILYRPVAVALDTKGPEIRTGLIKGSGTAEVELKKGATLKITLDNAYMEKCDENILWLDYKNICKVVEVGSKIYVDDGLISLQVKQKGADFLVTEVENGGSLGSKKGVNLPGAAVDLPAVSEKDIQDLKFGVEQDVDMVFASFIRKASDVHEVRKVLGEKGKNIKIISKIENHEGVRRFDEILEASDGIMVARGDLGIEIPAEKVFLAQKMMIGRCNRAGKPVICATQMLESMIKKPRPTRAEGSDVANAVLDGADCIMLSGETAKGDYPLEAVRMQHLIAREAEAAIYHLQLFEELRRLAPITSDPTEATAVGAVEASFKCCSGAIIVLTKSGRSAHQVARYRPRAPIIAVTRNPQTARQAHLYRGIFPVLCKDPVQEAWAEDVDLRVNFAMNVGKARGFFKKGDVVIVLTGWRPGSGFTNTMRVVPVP

binding result: binds
B1: recombinant human HMGB1 protein (high-mobility group box 1) (natural protein, UniProt P09429 1-215, looked up)
chain: MGKGDPKKPRGKMSSYAFFVQTCREEHKKKHPDASVNFSEFSKKCSERWKTMSAKEKGKFEDMAKADKARYEREMKTYIPPKGETKKKFKDPNAPKRPPSAFFLFCSEYRPKIKGEHPGLSIGDVAKKLGEMWNNTAADDKQPYEKKAAKLKEKYEKDIAAYRAKGKPDAAKKGVVKAEKSKKKKEEEEDEEDEEDEEEEEDEEDEDEEEDDDDE
notes: High-mobility group box 1 protein, human, recombinant; the only recombinant human HMGB1 named is from Sigma-Aldrich; also called rhHMGB1; source: bought: Sigma-Aldrich (recombinant human HMGB1; human HMGB1 protein produced in E. coli)

Reference: publication PMC4786644, “The HMGB1 protein induces a metabolic type of tumour cell death by blocking aerobic respiration” (Nature Communications, 2016)
